Experimental data published in publication PMC9190012, “Heparin activation of protein Z-dependent protease inhibitor (ZPI) allosterically blocks protein Z activation through an extended heparin-binding site” (The Journal of Biological Chemistry, 2022).

Legend:
NBD-ZPI–PZ interactions = target: T1, NBD-ZPI–PZ interactions (Homo sapiens, UniProt Q9UK55, C190A/C285S/K260C); experiment: Titrations of NBD-ZPI with PZ in absence and presence of fixed levels of heparin; type: binding; conditions: no heparin; 50 nM NBD-ZPI, 0.2 M NaCl buffer; read-out: ZPI–PZ KD,PZapp
T1 construct: made in house; host or cells: Escherichia coli
T1 sequence (Q9UK55 22-444 C190A/K260C/C285S): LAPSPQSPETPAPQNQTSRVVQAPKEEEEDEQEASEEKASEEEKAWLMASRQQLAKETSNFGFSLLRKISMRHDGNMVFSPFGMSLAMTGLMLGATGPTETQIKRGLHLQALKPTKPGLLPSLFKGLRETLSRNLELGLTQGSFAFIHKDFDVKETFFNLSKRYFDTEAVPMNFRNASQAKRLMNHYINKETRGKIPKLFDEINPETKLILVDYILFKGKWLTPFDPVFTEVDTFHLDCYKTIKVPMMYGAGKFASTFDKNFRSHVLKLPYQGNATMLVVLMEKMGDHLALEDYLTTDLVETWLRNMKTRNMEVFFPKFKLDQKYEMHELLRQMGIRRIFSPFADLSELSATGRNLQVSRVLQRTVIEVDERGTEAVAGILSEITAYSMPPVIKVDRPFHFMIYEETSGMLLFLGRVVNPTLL
Protocol: The effect of heparin on PZ binding to ZPI was measured by titrations of 50 nM NBD-ZPI with PZ in the absence and presence of different fixed levels of heparins of various lengths in the higher ionic strength buffer used for emission spectra. Titrations were monitored from the enhancement of NBD-ZPI fluorescence that signals PZ binding. These titrations were fit by the quadratic binding equation, ΔFobs/F0=ΔFmax/F0×[ZPI]0+[PZ]0+KD,PZapp−([ZPI]0+[PZ]0+KD,PZapp)^2−4×[ZPI]0×[PZ]0/2×[ZPI]0 where ΔFobs/Fo and ΔFmax/Fo are the observed and maximal fluorescence changes after addition of PZ expressed relative to the initial free NBD-ZPI fluorescence, respectively, and KD,PZapp = KD,PZ × (1 + [H]o/KD,H) is the apparent dissociation constant for the ZPI–PZ interaction in the absence or presence of heparin. The fitted parameters were KD,PZapp and ΔFmax/Fo.

K239C-NBD-ZPI = target: T2, K239C-NBD-ZPI (Homo sapiens, UniProt Q9UK55, C190A/C285S/K260C); experiment: Fluorescence emission spectra of K239C-NBD-ZPI with PZ and heparin; type: binding; conditions: saturating PZ added to NBD-labeled ZPI
T2 construct: made in house; host or cells: Escherichia coli
T2 sequence (Q9UK55 22-444 C190A/K260C/C285S): T1 sequence (Q9UK55 22-444 C190A/K260C/C285S)
Protocol: Fluorescence emission spectra of NBD-ZPI (50–100 nM) were measured in the absence or the presence of PZ and heparin in 20 mM Tris buffer (pH 7.4), 0.2 M NaCl, 0.1% PEG 8000, 1 mg/ml bovine serum albumin (BSA), and 2.5 mM CaCl2 with an SLM 8000 spectrofluorometer with excitation at 480 nm over the emission range of 500 to 600 nm. Intrinsic protein fluorescence of WT and mutant ZPIs (200 nM to 1 μM) was measured in the same buffer without BSA, with excitation at 280 nm over the emission range of 300 to 400 nm. Emission was monitored in 5-nm steps with 5 to 10 s of integrations per step. Spectra were obtained in triplicate and averaged. Buffer, buffer plus PZ, or buffer plus heparin background spectra were subtracted, and dilution corrections were made for added PZ or heparin (<10%).

PZ: human plasma protein Z, cofactor of ZPI, from Enzyme Research Laboratories
Kd (NBD-ZPI–PZ interactions): 9 ± 1.2 nM | enhancement in NBD fluorescence (K239C-NBD-ZPI): ~300%
